pKd: −log10 of the molar value.
How the values were obtained:
[1] = biological target: SARS-CoV-2 receptor-binding domain (WT RBD; S protein residues 319-539) (SARS-CoV-2) (UniProt P0DTC2); assay: BLI (Octet Red), IgG on protein A biosensor, WT RBD in solution, 1:1 fit
[2] = biological target: SARS-COV-2 RBD (SARS-COV-2) (UniProt P0DTC2); assay: ELISA, RBD coated

Q: How did the pKd [1] turn out when C144 (antibody) was run?
A: The pKd was 6.15.

Q: What about the EC50 [2] of the same substance?
A: Its EC50 is 1.83 ng/mL.
